IntAct's records for PubMed 25910212

B1: Progranulin (Homo sapiens), P28799 (parent)
chain: MWTLVSWVALTAGLVAGTRCPDGQFCPVACCLDPGGASYSCCRPLLDKWPTTLSRHLGGPCQVDAHCSAGHSCIFTVSGTSSCCPFPEAVACGDGHHCCPRGFHCSADGRSCFQRSGNNSVGAIQCPDSQFECPDFSTCCVMVDGSWGCCPMPQASCCEDRVHCCPHGAFCDLVHTRCITPTGTHPLAKKLPAQRTNRAVALSSSVMCPDARSRCPDGSTCCELPSGKYGCCPMPNATCCSDHLHCCPQDTVCDLIQSKCLSKENATTDLLTKLPAHTVGDVKCDMEVSCPDGYTCCRLQSGAWGCCPFTQAVCCEDHIHCCPAGFTCDTQKGTCEQGPHQVPWMEKAPAHLSLPDPQALKRDVPCDNVSSCPSSDTCCQLTSGEWGCCPIPEAVCCSDHQHCCPQGYTCVAEGQCQRGSEIVAGLEKMPARRASLSHPRDIGCDQHTSCPVGQTCCPSLGGSWACCQLPHAVCCEDRQHCCPAGYTCNVKARSCEKEVVSAQPATFLARSPHVGVKDVECGEGHFCHDNQTCCRDNRQGWACCPYRQGVCCADRRHCCPAGFRCAARGTKCLRREAPRWDAPLRDPALRQLL
partner: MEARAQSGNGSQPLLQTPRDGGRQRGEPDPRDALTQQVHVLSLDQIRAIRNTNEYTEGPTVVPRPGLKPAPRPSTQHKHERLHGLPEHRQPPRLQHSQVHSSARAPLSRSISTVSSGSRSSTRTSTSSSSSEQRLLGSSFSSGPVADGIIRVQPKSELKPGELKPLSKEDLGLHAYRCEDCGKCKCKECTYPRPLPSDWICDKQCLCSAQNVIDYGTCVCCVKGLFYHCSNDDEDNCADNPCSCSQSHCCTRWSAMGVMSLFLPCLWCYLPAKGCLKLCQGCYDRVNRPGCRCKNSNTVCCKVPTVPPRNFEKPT
B2: Sulfite oxidase, mitochondrial (Homo sapiens), P51687 (parent)
chain: MLLLHRAVVLRLQQACRLKSIPSRICIQACSTNDSFQPQRPSLTFSGDNSSTQGWRVMGTLLGLGAVLAYQDHRCRAAQESTHIYTKEEVSSHTSPETGIWVTLGSEVFDVTEFVDLHPGGPSKLMLAAGGPLEPFWALYAVHNQSHVRELLAQYKIGELNPEDKVAPTVETSDPYADDPVRHPALKVNSQRPFNAEPPPELLTENYITPNPIFFTRNHLPVPNLDPDTYRLHVVGAPGGQSLSLSLDDLHNFPRYEITVTLQCAGNRRSEMTQVKEVKGLEWRTGAISTARWAGARLCDVLAQAGHQLCETEAHVCFEGLDSDPTGTAYGASIPLARAMDPEAEVLLAYEMNGQPLPRDHGFPVRVVVPGVVGARHVKWLGRVSVQPEESYSHWQRRDYKGFSPSVDWETVDFDSAPSIQELPVQSAITEPRDGETVESGEVTIKGYAWSGGGRAVIRVDVSLDGGLTWQVAKLDGEEQRPRKAWAWRLWQLKAPVPAGQKELNIVCKAVDDGYNVQPDTVAPIWNLRGVLSNAWHRVHVYVSP
B3: EGF-containing fibulin-like extracellular matrix protein 1 (Homo sapiens), Q12805 (parent)
chain: MLKALFLTMLTLALVKSQDTEETITYTQCTDGYEWDPVRQQCKDIDECDIVPDACKGGMKCVNHYGGYLCLPKTAQIIVNNEQPQQETQPAEGTSGATTGVVAASSMATSGVLPGGGFVASAAAVAGPEMQTGRNNFVIRRNPADPQRIPSNPSHRIQCAAGYEQSEHNVCQDIDECTAGTHNCRADQVCINLRGSFACQCPPGYQKRGEQCVDIDECTIPPYCHQRCVNTPGSFYCQCSPGFQLAANNYTCVDINECDASNQCAQQCYNILGSFICQCNQGYELSSDRLNCEDIDECRTSSYLCQYQCVNEPGKFSCMCPQGYQVVRSRTCQDINECETTNECREDEMCWNYHGGFRCYPRNPCQDPYILTPENRCVCPVSNAMCRELPQSIVYKYMSIRSDRSVPSDIFQIQATTIYANTINTFRIKSGNENGEFYLRQTSPVSAMLVLVKSLSGPREHIVDLEMLTVSSIGTFRTSSVLRLTIIVGPFSF
partner: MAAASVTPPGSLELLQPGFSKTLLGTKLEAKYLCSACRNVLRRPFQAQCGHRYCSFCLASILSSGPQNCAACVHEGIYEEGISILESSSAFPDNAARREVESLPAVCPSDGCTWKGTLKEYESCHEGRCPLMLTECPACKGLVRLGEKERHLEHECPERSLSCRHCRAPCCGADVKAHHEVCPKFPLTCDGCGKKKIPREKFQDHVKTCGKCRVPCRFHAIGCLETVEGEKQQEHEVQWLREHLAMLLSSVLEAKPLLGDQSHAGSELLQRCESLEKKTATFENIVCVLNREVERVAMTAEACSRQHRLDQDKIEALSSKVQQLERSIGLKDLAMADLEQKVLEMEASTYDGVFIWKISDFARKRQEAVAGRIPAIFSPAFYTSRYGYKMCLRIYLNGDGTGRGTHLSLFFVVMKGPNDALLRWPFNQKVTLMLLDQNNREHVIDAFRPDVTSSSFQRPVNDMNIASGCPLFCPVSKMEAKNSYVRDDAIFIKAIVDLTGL
B4: Claudin-19 (Homo sapiens), Q8N6F1-2 (parent)
chain: MANSGLQLLGYFLALGGWVGIIASTALPQWKQSSYAGDAIITAVGLYEGLWMSCASQSTGQVQCKLYDSLLALDGHIQSARALMVVAVLLGFVAMVLSVVGMKCTRVGDSNPIAKGRVAIAGGALFILAGLCTLTAVSWYATLVTQEFFNPSTPVNARYEFGPALFVGWASAGLAVLGGSFLCCTCPEPERPNSSPQPYRPGPSAAAREYV
partner: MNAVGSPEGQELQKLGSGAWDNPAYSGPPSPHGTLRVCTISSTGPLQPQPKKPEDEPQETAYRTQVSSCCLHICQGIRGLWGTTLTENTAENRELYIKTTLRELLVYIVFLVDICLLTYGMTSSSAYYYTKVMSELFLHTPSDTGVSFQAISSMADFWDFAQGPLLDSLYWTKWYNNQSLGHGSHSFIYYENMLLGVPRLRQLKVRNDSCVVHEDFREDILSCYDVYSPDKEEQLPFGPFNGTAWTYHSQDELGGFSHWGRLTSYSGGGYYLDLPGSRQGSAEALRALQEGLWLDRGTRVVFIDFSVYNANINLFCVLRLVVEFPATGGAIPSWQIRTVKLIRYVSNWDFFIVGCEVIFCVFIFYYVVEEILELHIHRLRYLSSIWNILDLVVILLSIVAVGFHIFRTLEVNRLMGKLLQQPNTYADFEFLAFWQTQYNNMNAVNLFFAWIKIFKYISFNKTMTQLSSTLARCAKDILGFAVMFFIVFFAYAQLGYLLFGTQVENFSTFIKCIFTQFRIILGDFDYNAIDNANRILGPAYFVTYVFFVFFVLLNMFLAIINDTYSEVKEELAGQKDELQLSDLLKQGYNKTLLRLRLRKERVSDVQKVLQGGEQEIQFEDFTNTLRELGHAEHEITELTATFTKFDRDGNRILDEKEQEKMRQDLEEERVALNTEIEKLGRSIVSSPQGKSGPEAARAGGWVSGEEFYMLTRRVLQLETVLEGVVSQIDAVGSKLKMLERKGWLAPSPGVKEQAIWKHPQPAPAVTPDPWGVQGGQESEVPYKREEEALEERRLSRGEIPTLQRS
B5: Prelamin-A/C (Homo sapiens), P02545-2 (parent)
chain: METPSQRRATRSGAQASSTPLSPTRITRLQEKEDLQELNDRLAVYIDRVRSLETENAGLRLRITESEEVVSREVSGIKAAYEAELGDARKTLDSVAKERARLQLELSKVREEFKELKARNTKKEGDLIAAQARLKDLEALLNSKEAALSTALSEKRTLEGELHDLRGQVAKLEAALGEAKKQLQDEMLRRVDAENRLQTMKEELDFQKNIYSEELRETKRRHETRLVEIDNGKQREFESRLADALQELRAQHEDQVEQYKKELEKTYSAKLDNARQSAERNSNLVGAAHEELQQSRIRIDSLSAQLSQLQKQLAAKEAKLRDLEDSLARERDTSRRLLAEKEREMAEMRARMQQQLDEYQELLDIKLALDMEIHAYRKLLEGEEERLRLSPSPTSQRSRGRASSHSSQTQGGGSVTKKRKLESTESRSSFSQHARTSGRVAVEEVDEEGKFVRLRNKSNEDQSMGNWQIKRQNGDDPLLTYRFPPKFTLKAGQVVTIWAAGAGATHSPPTDLVWKAQNTWGCGNSLRTALINSTGEEVAMRKLVRSVTVVEDDEDEDGDDLLHHHHVSGSRR

Variants of: B1
Settings: with spy2_human SPRY2, O43597

| effect of a mutation on the interaction | Variant |
| --- | --- |
| disrupting interaction strength | R432C |
| disrupting interaction strength | P451L |

Variants of: B2
Settings: with nup62_human NUP62, P37198
Sequence of nup62_human NUP62, P37198 (P37198 whole entry): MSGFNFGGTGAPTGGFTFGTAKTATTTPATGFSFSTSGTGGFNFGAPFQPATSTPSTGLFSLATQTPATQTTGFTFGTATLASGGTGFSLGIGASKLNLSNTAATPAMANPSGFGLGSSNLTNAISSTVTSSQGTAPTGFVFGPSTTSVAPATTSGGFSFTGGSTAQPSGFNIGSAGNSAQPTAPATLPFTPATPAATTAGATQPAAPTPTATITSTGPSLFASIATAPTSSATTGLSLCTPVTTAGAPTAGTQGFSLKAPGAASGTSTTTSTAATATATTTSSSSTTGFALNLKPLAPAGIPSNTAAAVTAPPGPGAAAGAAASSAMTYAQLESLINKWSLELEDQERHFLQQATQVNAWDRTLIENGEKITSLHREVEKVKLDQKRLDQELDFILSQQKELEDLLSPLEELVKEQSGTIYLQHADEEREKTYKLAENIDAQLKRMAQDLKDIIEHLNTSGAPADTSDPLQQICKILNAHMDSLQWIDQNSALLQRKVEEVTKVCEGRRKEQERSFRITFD

| effect of a mutation on the interaction | Variant |
| --- | --- |
| with no effect | Q396R |
| disrupting interaction strength | W450R |

Variants of: B3
Settings: with traf2_human TRAF2, Q12933

| effect of a mutation on the interaction | Variant |
| --- | --- |
| with no effect | R345W |

Variants of: B4
Settings: with pk2l1_human PKD2L1, Q9P0L9

| effect of a mutation on the interaction | Variant |
| --- | --- |
| disrupting interaction strength | G20D |
| with no effect | R200Q |
| disrupting interaction strength | L90P |

Variants of: B5
Settings: with syce1_human SYCE1, Q8N0S2
Sequence of syce1_human SYCE1, Q8N0S2 (Q8N0S2 whole entry): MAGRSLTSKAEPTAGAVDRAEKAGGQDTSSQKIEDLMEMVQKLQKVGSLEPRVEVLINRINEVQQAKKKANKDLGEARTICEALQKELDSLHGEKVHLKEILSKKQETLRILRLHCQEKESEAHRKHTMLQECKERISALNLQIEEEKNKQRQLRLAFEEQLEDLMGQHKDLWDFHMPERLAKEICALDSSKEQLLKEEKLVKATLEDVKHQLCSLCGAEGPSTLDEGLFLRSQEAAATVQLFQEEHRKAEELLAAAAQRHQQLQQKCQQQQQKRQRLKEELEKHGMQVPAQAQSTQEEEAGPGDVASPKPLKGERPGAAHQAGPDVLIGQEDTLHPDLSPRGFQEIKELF

| effect of a mutation on the interaction | Variant |
| --- | --- |
| disrupting interaction strength | R377L |
| disrupting interaction strength | L162P |
